Measurements taken from patent US20230303658A1 (published 2023).

B1: Fc_RK type anti-EpCAM antibody (antibody, human IgG1, kappa)
heavy: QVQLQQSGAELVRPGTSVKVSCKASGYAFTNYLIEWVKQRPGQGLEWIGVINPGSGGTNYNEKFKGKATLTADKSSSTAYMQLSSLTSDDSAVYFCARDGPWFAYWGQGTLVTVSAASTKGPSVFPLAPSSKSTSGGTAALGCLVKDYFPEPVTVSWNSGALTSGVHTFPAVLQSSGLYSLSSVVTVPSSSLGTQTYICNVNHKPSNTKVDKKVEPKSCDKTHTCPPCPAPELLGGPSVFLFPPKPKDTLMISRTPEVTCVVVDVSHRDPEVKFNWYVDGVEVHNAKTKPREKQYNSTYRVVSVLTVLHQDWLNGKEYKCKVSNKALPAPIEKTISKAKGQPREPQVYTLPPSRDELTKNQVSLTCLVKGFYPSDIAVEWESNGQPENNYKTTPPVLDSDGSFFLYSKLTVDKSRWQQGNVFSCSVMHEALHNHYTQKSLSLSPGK
light: NIVMTQSPKSMSMSVGERVTLTCKASENVVTYVSWYQQKPEQSPKLLIYGASNRYTGVPDRFTGSGSATDFTLTISSVQAEDLADYHCGQGYSYPYTFGGGTKLEIKRTVAAPSVFIFPPSDEQLKSGTASVVCLLNNFYPREAKVQWKVDNALQSGNSQESVTEQDSKDSTYSLSSTLTLSKADYEKHKVYACEVTHQGLSSPVTKSFNRGEC
B2: Fc_RR type anti-EpCAM antibody (antibody, human IgG1, kappa)
heavy: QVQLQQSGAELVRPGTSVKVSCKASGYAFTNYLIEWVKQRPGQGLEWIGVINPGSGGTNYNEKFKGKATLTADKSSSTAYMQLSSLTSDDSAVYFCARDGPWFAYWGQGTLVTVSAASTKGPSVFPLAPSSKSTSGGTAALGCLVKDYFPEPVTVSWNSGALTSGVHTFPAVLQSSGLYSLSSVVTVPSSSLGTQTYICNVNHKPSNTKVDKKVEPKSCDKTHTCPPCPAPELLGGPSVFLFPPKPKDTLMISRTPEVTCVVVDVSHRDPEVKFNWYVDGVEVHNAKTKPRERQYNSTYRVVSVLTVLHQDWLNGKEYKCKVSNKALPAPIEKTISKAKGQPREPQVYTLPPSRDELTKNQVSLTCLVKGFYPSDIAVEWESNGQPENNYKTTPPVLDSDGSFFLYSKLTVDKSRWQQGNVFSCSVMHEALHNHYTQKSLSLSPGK
light: B1 light
B3: Fc_wt type anti-EpCAM antibody (antibody, human IgG1, kappa)
heavy: not shown
light: B1 light
notes: also called edrecolomab variable regions on human Igγ1

Columns and labels:
CD16V_K128E_K131D [1] = target: T1, CD16V_K128E_K131D (human, UniProt P08637 19-208); test: ELISA: EpCAM coated, anti-EpCAM antibody captured, FLAG-tagged CD16V protein titrated from 10 µg/mL, anti-FLAG-HRP detection
T1 construct: Soluble FLAG-tagged mutant
T1 sequence (P08637 other isoform, or with tags, fused parts or gaps K128E K131D K128E K131D): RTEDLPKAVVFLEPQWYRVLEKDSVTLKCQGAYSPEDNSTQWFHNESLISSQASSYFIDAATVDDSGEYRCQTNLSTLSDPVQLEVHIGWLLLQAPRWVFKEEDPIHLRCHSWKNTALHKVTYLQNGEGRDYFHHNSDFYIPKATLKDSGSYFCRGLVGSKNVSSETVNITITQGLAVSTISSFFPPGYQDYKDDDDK
Method: (§1) After incubation at room temperature for one hour, the plate was washed with TBS-T. Next, 20 μL of horseradish peroxidase-labeled anti-FLAG (registered trademark) M2 antibody diluted with the diluent was added to each well as a detection antibody. After incubating at room temperature for one hour, the plate was washed with TBS-T. After adding TMB+Substrate-Chromogen and incubating, the reaction was stopped by adding 1M sulfuric acid, and the absorbance at 450 nm and reference wavelength were measured using Infinite 200 PRO.

CD16V_K131D_N38Q [2] = target: T2, CD16V_K131D_N38Q (human, UniProt P08637 19-208); test: as above
T2 construct: Soluble FLAG-tagged mutant
T2 sequence (P08637 other isoform, or with tags, fused parts or gaps K131D N38Q K131D N38Q): as the sequence (P08637 other isoform, or with tags, fused parts or gaps K128E K131D K128E K131D) above, with N38Q, E128K counted along it
Method: as §1

CD16V_K131D_N74Q [3] = target: T3, CD16V_K131D_N74Q (human, UniProt P08637 19-208); test: as above
T3 construct: Soluble FLAG-tagged mutant
T3 sequence (P08637 other isoform, or with tags, fused parts or gaps K131D N74Q K131D N74Q): as the sequence (P08637 other isoform, or with tags, fused parts or gaps K128E K131D K128E K131D) above, with N74Q, E128K counted along it
Method: as §1

CD16V_K131D [4] = target: T4, CD16V_K131D (human, UniProt P08637 19-208); test: as above
T4 construct: Soluble FLAG-tagged mutant; also called K149D (AAH17865.1 numbering)
T4 sequence (P08637 other isoform, or with tags, fused parts or gaps K131D K131D): as the sequence (P08637 other isoform, or with tags, fused parts or gaps K128E K131D K128E K131D) above, with E128K counted along it
Method: as §1

CD16V_K128E_K131E [5] = target: T5, CD16V_K128E_K131E (human, UniProt P08637 19-208); test: as above
T5 construct: Soluble FLAG-tagged mutant
T5 sequence (P08637 other isoform, or with tags, fused parts or gaps K128E K131E K128E K131E): as the sequence (P08637 other isoform, or with tags, fused parts or gaps K128E K131D K128E K131D) above, with D131E counted along it
Method: as §1

[6] = target: T6, CD16V protein (extracellular portion of CD16A V158 with C-terminal FLAG sequence) (human, UniProt P08637 19-208); test: ELISA: EpCAM coated, anti-EpCAM antibody captured, FLAG-tagged CD16V protein titrated, anti-FLAG-HRP detection
T6 construct: Soluble protein from ExpiCHO-S cells, purified on anti-FLAG gel
T6 sequence (P08637 other isoform, or with tags, fused parts or gaps): as the sequence (P08637 other isoform, or with tags, fused parts or gaps K128E K131D K128E K131D) above, with E128K, D131K counted along it
Method: as §1

[7] = target: T6, CD16V protein (extracellular portion of …); test: ELISA: EpCAM coated, anti-EpCAM antibody captured, FLAG-tagged CD16V protein titrated from 10 µg/mL, anti-FLAG-HRP detection
Method: as §1

CD16V_K128E_K131D [8] = target: T1, CD16V_K128E_K131D; test: ELISA: EpCAM coated, anti-EpCAM antibody captured, FLAG-tagged CD16V protein titrated, anti-FLAG-HRP detection
Method: as §1

CD16V_K131D_N38Q [9] = target: T2, CD16V_K131D_N38Q; test: as above
Method: as §1

CD16V_K131D_N74Q [10] = target: T3, CD16V_K131D_N74Q; test: as above
Method: as §1

CD16V_K131D [11] = target: T4, CD16V_K131D; test: as above
Method: as §1

CD16V_K128E_K131E [12] = target: T5, CD16V_K128E_K131E; test: as above
Method: as §1

| Binder | binding result (CD16V_K128E_K131D [1]) | binding result (CD16V_K131D_N38Q [2]) | binding result (CD16V_K131D_N74Q [3]) | binding result (CD16V_K131D [4]) | binding result (CD16V_K128E_K131E [5]) | binding result [6] | binding result [7] | binding result (CD16V_K128E_K131D [8]) | binding result (CD16V_K131D_N38Q [9]) | binding result (CD16V_K131D_N74Q [10]) | binding result (CD16V_K131D [11]) | binding result (CD16V_K128E_K131E [12]) |
| --- | --- | --- | --- | --- | --- | --- | --- | --- | --- | --- | --- | --- |
| B1 | binds | binds | binds | binds | binds | no binding (tested: CD16V protein up to 10 µg/mL) | – | – | – | – | – | – |
| B2 | binds | binds | binds | binds | binds | no binding (tested: CD16V protein up to 10 µg/mL) | – | – | – | – | – | – |
| B3 | – | – | – | – | – | – | binds | no binding (tested: CD16V protein up to 10 µg/mL) | no binding (tested: CD16V protein up to 10 µg/mL) | no binding (tested: CD16V protein up to 10 µg/mL) | no binding (tested: CD16V protein up to 10 µg/mL) | no binding (tested: CD16V protein up to 10 µg/mL) |
